# Reference: patent publication US20240140995A1
# Assays:
# E. coli ColE-7 (E. coli) [1] = target: E. coli ColE-7 (E. coli) (UniProt Q47112); assay: SPR Biacore T200, 37 C, single cycle kinetics
# [2] = target: GthCol (Geobacillus thermoglucosidasius C-terminal Colicin DNase domain, C36A, H78A, engineered) (Geobacillus thermoglucosidasius); assay: SPR Biacore T200, 37 C, single cycle kinetics
# [3] = target: GthCol (Geobacillus thermoglucosidasius C-terminal Colicin DNase domain, C36A, H78A, engineered) (Geobacillus thermoglucosidasius); assay: SPR Biacore T200, 37 C, single cycle kinetics; […]
# E. coli ColE-7 (E. coli) [4] = target: E. coli ColE-7 (E. coli) (UniProt Q47112); assay: SPR Biacore T200, 37 C, single cycle kinetics; biotinylated immunity protein on streptavidin sensor, colicin analyte 1.1-90 nM
substance,measurement,setting,value
"GthIM (Geobacillus thermoglucosidasius immunity protein, C18A, engineered), singly biotinylated",complex half-life t/2-diss,E. coli ColE-7 (E. coli) [1],< 1 min
same,fold less affinity than GthIM/GthCol,E. coli ColE-7 (E. coli) [1],65000 fold
same,fold stronger than the IM7/ColE7 interaction,[2],> 30 fold
same,GthCol concentration at which GthIM saturation is achieved,[3],3 nM
same,Kd,[3],< 0.2 pM
same,"MR (Molar Ratio, binding stoichiometry)",[3],1.1
same,koff,[3],< 1e-05 s⁻¹
same,kon,[3],> 5e+07 M⁻¹ s⁻¹
same,"MR (Molar Ratio, binding stoichiometry)",E. coli ColE-7 (E. coli) [4],1.2
